Measurements reported in patent US20160340422A1 (BEIJING HANMI PHARMACEUTICAL, published 2016).

Experiments:
[1] = molecular target: Human IL-17A (human, UniProt Q16552 24-155); assay: cell-based or functional assay
[2] = molecular target: T1, Mouse IL-17A (mouse, UniProt Q62386 26-158, limits assumed); assay: ELISA, coated mouse IL-17A, HRP anti-mouse IgG
T1 construct: Bought recombinant protein; also called mice IL-17A
T1 sequence (looked up): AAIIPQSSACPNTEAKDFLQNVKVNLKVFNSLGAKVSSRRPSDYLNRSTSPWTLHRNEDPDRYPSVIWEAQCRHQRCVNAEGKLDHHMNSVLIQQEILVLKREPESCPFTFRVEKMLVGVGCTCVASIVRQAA
Protocol: The plated is blocked with PBST comprising 1% BSA, 300 μL/well, and incubated at 25° C. for at least 1 hour. The plate is washed with PBST for 5 times. Samples to be tested is added at a specific concentration, which are diluted in PBST comprising 1% BSA, 100 μL/well, and incubated at 25° C. for 1 hour. The plate is washed with PBST for 5 times. Then a horse radish peroxidase labeled anti-mouse IgG antibody (1:10,000, in PEST comprising 1% BSA) (Abeam, product No. Ab7068) is added, 100 U L/well, and incubated at 25° C. for 1 hour. The plate is washed with PBST for 5 times. […] 1M H₂SO₄is added with 100 μL/well to terminate the colorimetric development. The Absorbance at 450 nm is read on ELISA.

Sequence of Human IL-17A (Q16552 24-155 limits assumed): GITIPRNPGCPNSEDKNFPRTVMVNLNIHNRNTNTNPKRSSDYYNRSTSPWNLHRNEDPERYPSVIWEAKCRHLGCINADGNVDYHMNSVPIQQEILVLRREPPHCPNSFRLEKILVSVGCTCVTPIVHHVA

B1: Control antibody A (antibody, mouse IgG2a, kappa, V domains shown)
VH: QVQLKESGPGLVQPSQTLSLTCTVSGFSLTNYYVHWVRQPPGKGLEWMGGVWNDGDTSYNSVLRSRLSITRDTSKSQVLLKMSSLQTEDTATYYCAREGREGFVGYYVMDAWGPGASVTVSS
VL: DIQMTQSPSFLSASVGERVTLSCKASQNINKYLDWFQQKLGEAPKLLIYNADNLHTGIPSRFSGSGSFSDFILTISSLQPEDDATYFCLQRESWPYTFGAGTKLELKR
notes: Corresponds to the anti-IL-17A antibody moiety of bifunctional fusion proteins A and C; also called anti-IL-17A antibody (rat 1D10 variable region, mouse IgG2a constant region); anti-IL-17A mAb
IC50 for inhibiting GROα secretion from HT-29 cells induced by IL-17A [1]: 0.532 nM | binding result [2]: binds
